From PMC10046861, “Linker Length Drives Heterogeneity of Multivalent Complexes of Hub Protein LC8 and Transcription Factor ASCIZ” (Biomolecules, 2023)
Changes are numbered by the printed parent chain. “And” between values parts separate entries of the source, which are not always exact repeats. Identical values can stand only once.

B1: QT3 (QT2–4 single-site variant, only motif QT3 intact) (domain or fragment)
chain: EVLAPLLRDIEAAAPDTRGDIGTMTDDFPEEQEPVAVGSHFHAYSETEPMFDLQTSAHMYAAACDDLFEEL
modifications: Anchor positions are not printed. They were deduced from 8-residue motifs ending in the anchor, linkers of 3 and 30 residues, and 9 residues after QT4; the wild-type letters must match the entry …
B2: Drosophila ASCIZ QT2–4 (residues 271–341) (domain or fragment, UniProt Q9VZU1 271-341, looked up)
chain: B1 chain with A12T, A13Q, A14T, A61T, A62Q, A63T
notes: also called wildtype QT2–4; intact QT2–4 construct; source: E. coli Rosetta (DE3), purified under denaturing conditions (TALON, anion exchange, gel filtration)
B3: Drosophila LC8 (natural protein)
chain: MSDRKAVIKNADMSEEMQQDAVDCATQALEKYNIEKDIAAYIKKEFDKKYNPTWHCIVGRNFGSYVTHETRHFIYFYLGQVAILLFKSG
notes: LC8 hub protein (dynein light chain LC8) of Drosophila; folds as a homodimer; tag cleaved by TEV protease; also called LC8 dimer; source: E. coli Rosetta (DE3), purified (TALON, anion exchange, Superdex 75 gel filtration)

What was measured:
[1] = target: QT3,4 (QT2–4 double-site variant, motifs QT3 and QT4 intact) (Drosophila) (UniProt Q9VZU1); experiment: ITC; LC8 (400–500 µM) in the syringe titrated into QT variant (20–50 µM) in the cell; 25 °C; 50 mM sodium phosphate, 50 mM NaCl, 1 mM sodium azide, 5 mM β-mercaptoethanol, pH 7.5; single set of sites fit, for double-site variants also sequential binding sites (SBS) and two sets of sites (TSS) fits
[2] = target: QT2,3 (QT2–4 double-site variant, motifs QT2 and QT3 intact) (Drosophila) (UniProt Q9VZU1); experiment: as above
[3] = target: QT3,4 (QT2–4 double-site variant, motifs QT3 and QT4 intact) (Drosophila) (UniProt Q9VZU1); experiment: native MS; native ESI-MS; LC8 mixed with double-site QT variant at 2:1 LC8:QT, overnight at 4 °C; 25 µM total protein and dilutions to 500 nM; 200 mM ammonium acetate, pH 7.4; conditions: scale: LC8 chains per variant chain
[4] = target: QT2,4 (QT2–4 double-site variant, motifs QT2 and QT4 intact) (Drosophila) (UniProt Q9VZU1); experiment: as above; conditions: scale: LC8 chains per variant chain
[5] = target: QT2,3 (QT2–4 double-site variant, motifs QT2 and QT3 intact) (Drosophila) (UniProt Q9VZU1); experiment: as above; conditions: scale: LC8 chains per variant chain
[6] = target: B3; experiment: ITC; LC8 (400–500 µM) in the syringe titrated into QT variant (20–50 µM) in the cell; 25 °C; 50 mM sodium phosphate, 50 mM NaCl, 1 mM sodium azide, 5 mM β-mercaptoethanol, pH 7.5; single set of sites fit, for double-site variants also sequential binding sites (SBS) and two sets of sites (TSS) fits; conditions: both partners purified
[7] = target: B3; experiment: negative-stain electron microscopy; images of a QT2–4/LC8 mixture; strings of LC8 dimers counted in 50 images; conditions: both partners purified
[8] = target: QT4 (QT2–4 single-site variant, only motif QT4 intact) (Drosophila) (UniProt Q9VZU1); experiment: ITC; LC8 (400–500 µM) in the syringe titrated into QT variant (20–50 µM) in the cell; 25 °C; 50 mM sodium phosphate, 50 mM NaCl, 1 mM sodium azide, 5 mM β-mercaptoethanol, pH 7.5; single set of sites fit, for double-site variants also sequential binding sites (SBS) and two sets of sites (TSS) fits
[9] = target: QT2 (QT2–4 single-site variant, only motif QT2 intact) (Drosophila) (UniProt Q9VZU1); experiment: as above
[10] = target: QT2,4 (QT2–4 double-site variant, motifs QT2 and QT4 intact) (Drosophila) (UniProt Q9VZU1); experiment: as above
[11] = target: the molecule itself; experiment: native MS; native ESI-MS of the individual proteins (25 µM; dilution series); 200 mM ammonium acetate, pH 7.4
[12] = target: B2; experiment: SEC-MALS; 90 µM QT2–4 or QT4–6 mixed with 300 µM LC8 (1:3.3); Superdex200 10/300 GL, room temperature; 50 mM sodium phosphate, 0.4 M NaCl, 1 mM NaN3, 5 mM β-mercaptoethanol, pH 7.5; conditions: both partners purified

Drosophila LC8 (from UniProt Q24117 1-89) (natural protein)
N of site QT3, two sets of sites fit [1]: 0.2
fold stabilisation of the stronger site (QT2) against its single-site variant, two sets of sites fit [2]: 7 fold
fold stabilisation of the weaker site (QT3) against its single-site variant, two sets of sites fit [2]: 2 fold
stoichiometry N [3]: 2 (2×) and 4 and 3
stoichiometry N [4]: 2 (2×) and 4 and 3
stoichiometry N [5]: 2 (2×) and 4 and 3

B1
Kd [6]: 36 µM

B2
binding result [7]: binds

B3
Kd [8]: 15 µM
dH [8]: -16.1 kcal/mol
Kd of the second (weaker) site, QT3, sequential binding sites fit [1]: 40 µM
Kd of the second (weaker) site, QT3, two sets of sites fit [1]: 25.7 µM
Kd [9]: 9.3 µM
dH [9]: -10.7 kcal/mol
N of site QT4, two sets of sites fit [10]: 0.6
fold increase in affinity of site QT4 against the single-site variant QT4, sequential binding sites fit [10]: 5 fold
stoichiometry N [11]: 2
stoichiometry N [12]: 1 LC8 chains per QT2–4 chain (2 QT2–4 chains, 2 LC8 chains)
